Drawing on publication PMC7572726, this text covers stoichiometry N for three substances.

The target of test [1] is SfSTING with the TIR domain removed (ΔTIR) (Sphingobacterium faecium). In words: SEC-MALS. In general terms: Size exclusion chromatography separates by hydrodynamic size, large species first.
Test [2] has as its target TIR-only construct of SfSTING with the cyclic dinucleotide binding domain removed (ΔCDN) (Sphingobacterium faecium). In words: SEC-MALS.
In test [3] the target is Capnocytophaga granulosa STING (Capnocytophaga granulosa). In words: crystal structure.

The stoichiometry N is the number of molecules, sites or subunits per partner or assembly. “SfSTING with the TIR domain removed (ΔTIR) (domain or fragment)” gave a stoichiometry N in test [1] of 2.
As to “TIR-only construct of SfSTING with the cyclic dinucleotide binding domain removed (ΔCDN) (domain or fragment)”, in test [2], the stoichiometry N worked out at 2.
In the case of “Capnocytophaga granulosa STING (from UniProt A0A381HAP5 151-314) (domain or fragment)”, the stoichiometry N in test [3] was found to be 2.
